# Test results reported in patent publication US20060246543.
# T1: STAT4 immunoprecipitated with anti-STAT4 from ConA-activated thymocytes
# T1 sequence (P42228 1-749, species assumed, looked up): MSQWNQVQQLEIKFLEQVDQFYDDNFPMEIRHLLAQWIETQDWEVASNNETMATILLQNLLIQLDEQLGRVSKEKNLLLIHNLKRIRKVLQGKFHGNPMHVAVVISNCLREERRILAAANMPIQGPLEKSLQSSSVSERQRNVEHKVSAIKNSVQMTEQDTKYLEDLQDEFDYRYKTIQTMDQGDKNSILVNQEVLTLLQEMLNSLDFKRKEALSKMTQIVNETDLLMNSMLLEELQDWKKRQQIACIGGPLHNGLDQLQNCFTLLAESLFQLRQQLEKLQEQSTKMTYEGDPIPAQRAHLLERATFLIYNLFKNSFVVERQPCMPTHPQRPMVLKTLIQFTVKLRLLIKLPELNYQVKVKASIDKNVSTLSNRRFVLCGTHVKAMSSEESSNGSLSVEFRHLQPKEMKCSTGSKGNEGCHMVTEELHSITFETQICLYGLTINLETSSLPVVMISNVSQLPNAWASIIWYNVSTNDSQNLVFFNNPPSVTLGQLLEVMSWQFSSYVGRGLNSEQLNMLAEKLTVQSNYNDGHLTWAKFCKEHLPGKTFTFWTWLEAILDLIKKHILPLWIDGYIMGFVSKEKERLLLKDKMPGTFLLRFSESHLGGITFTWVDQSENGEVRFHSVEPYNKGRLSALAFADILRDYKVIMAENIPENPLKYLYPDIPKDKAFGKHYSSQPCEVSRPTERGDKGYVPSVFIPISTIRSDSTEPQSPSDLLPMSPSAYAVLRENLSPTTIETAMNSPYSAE
# Target: T1, STAT4 immunoprecipitated with …
protein,measurement,value
recombinant SLIM (His-SLIM expressed in E. coli and purified on a Nickel column) (protein) MALTVDVAGPAPWGFRISGGRDFHTPIIVTKVTERGKAEAADLRPGDIIVAINGQSAENMLHAEAQSKIRQSASPLRLQLDRSQTASPGQTNGEGSLEVLATRFQGSLRTHRDSQSSQRSACFSPVSLSPRPCSPFSTPPPTSPVALSKEDMIGCSFQSLTHSPGLAAAHHLTYPGHPTSQQAGHSSPSDSAVRVLLHSPGRPSSPRFSLDLEEDSEVFKMLQENRQGRAAPRQSSSFRLLQEALEAEERGGTPAFVPSSLSSQASLPTSRALATPPKLHTCKKCSVNISNQAVRIQEGRYRHPGCYTCADCGLNLKMRGHFWVGNELYCEKHARQRYSMPGTLNSRA,"in vitro ubiquitination of STAT4 (biotin-ubiquitin, E1, UbcH5a; immunoblot anti-STAT4)",purified recombinant SLIM could mediate the in vitro ubiquitination of purified STAT4 which was immunoprecipitated from ConA-activated thymocytes
